The values below are quoted from earlier work in publication PMC4449288.

The target in this data set is mAKAPβ (Homo sapiens) (UniProt Q13023). Nature of the data set: SPR. (In general: In SPR one partner is held on a chip, and binding of the other changes the refractive index at the surface.)
UniProt Q13023, sequence (Q13023 whole entry): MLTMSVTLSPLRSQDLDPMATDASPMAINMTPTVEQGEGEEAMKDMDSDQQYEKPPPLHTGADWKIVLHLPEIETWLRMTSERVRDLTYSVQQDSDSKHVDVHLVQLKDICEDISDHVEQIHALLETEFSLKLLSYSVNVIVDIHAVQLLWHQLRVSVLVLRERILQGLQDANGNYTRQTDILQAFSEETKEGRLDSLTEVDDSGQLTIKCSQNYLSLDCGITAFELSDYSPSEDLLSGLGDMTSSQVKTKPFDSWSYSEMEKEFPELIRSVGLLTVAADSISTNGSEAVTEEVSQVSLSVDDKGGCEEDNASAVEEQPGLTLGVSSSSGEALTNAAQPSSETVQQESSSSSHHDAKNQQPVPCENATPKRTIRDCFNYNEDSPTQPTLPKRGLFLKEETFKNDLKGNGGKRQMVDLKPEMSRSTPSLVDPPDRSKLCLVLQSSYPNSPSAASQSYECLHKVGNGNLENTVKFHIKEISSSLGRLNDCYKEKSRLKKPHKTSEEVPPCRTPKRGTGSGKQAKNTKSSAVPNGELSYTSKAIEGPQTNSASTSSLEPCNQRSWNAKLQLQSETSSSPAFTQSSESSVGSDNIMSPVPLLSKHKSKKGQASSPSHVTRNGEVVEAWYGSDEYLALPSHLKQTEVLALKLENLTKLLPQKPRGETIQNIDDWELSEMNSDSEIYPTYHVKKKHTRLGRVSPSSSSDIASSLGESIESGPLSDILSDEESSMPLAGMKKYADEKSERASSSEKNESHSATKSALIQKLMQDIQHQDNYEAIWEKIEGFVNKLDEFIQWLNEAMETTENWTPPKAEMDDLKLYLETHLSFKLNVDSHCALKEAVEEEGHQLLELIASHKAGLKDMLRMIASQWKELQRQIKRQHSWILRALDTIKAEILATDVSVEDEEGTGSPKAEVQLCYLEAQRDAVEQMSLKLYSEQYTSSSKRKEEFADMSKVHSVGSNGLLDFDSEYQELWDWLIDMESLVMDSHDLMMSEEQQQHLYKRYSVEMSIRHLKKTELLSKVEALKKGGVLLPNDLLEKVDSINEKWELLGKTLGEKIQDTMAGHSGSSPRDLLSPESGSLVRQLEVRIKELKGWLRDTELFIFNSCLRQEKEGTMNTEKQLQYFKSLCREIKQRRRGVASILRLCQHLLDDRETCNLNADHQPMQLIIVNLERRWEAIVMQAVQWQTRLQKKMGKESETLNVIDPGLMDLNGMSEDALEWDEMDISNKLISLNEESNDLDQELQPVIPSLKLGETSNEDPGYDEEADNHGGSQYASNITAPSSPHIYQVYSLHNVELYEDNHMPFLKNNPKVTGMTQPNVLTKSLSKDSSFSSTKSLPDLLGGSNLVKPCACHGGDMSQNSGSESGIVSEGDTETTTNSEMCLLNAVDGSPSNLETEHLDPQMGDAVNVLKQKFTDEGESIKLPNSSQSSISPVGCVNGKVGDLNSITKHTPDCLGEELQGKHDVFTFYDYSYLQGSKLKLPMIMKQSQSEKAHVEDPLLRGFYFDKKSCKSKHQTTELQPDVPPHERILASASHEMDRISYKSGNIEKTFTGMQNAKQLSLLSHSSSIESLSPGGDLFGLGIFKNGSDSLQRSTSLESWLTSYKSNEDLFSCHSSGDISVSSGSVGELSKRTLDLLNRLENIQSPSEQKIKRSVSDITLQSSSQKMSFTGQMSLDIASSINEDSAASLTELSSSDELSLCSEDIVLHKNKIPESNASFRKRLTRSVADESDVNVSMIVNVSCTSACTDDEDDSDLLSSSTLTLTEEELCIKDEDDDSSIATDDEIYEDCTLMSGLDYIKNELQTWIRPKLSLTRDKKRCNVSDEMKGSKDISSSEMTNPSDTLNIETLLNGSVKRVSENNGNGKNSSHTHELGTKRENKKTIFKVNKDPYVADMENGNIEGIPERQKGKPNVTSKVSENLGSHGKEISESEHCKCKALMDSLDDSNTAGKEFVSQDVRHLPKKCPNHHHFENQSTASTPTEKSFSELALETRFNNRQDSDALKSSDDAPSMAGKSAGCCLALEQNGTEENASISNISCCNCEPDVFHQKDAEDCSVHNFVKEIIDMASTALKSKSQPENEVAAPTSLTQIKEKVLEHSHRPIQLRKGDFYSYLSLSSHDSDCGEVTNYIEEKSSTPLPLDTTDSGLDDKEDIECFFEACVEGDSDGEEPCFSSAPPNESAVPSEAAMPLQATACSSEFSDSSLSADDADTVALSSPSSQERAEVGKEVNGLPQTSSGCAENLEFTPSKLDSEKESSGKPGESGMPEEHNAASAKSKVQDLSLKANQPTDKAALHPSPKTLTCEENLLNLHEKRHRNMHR

On to RSK3 (from UniProt Q15349), for which the equilibrium dissociation constant (Kd) is 1.6 nM.

As usually defined, the Kd is a measure of binding affinity in units of concentration.
